The text below walks through data of article PMC8353492.

Test [1] concerns the target NOX2 phox complex (rhodamine-tagged cytochrome b558 (gp91 plus p22), p40, p47 and p67), cell-free system (UniProt P04839). Kind of test: rhodamine fluorescence intensity over time; initially inactive (GDP-bound) Rac added to the cell-free NOX2 phox complex with rhodamine-tagged cytochrome b558 after a fraction of preactivated wt Rac (∼2 mol %); SDS 100 μM; assay buffer with NADPH and GTP, pH 7.4; also with H2O2 (unaffected) or ascorbic acid 10 mM (enhanced).

Test [2] has the same target. The test is described as follows: rhodamine fluorescence intensity over time; fully preactivated (GTP-bound) Rac added to the cell-free NOX2 phox complex with rhodamine-tagged cytochrome b558 (subunits 100 nM), SDS 100 μM; 10 mM MgCl2, 50 mM KCl, 1 mM NaCl, 0.2 mM NADPH, 10 mM GTP, 10 mM Mops pH 7.4.

Consider “L134R Rac (from UniProt P63000 1-192) (natural protein)”, for which, in test [1], the fold slower rate of binding than wt Rac worked out at 1.5 fold. Also, the fold slower binding than wt Rac in test [2] is 1.5 fold.

As to “K132E Rac (from UniProt P63000 1-192) (natural protein)”, in test [1], the fold slower rate of binding than wt Rac came to 1.5 fold. The fold slower binding than wt Rac in test [2] came to 1.5 fold.
